Reference: patent publication US20180291353A1, “MONOFUNCTIONAL ALDEHYDE AND ALCOHOL DEHYDROGENASES FOR PRODUCTION OF FUELS AND COMMODITY CHEMICALS” (The Regents of the University of California, priority 2015, published 2018)

Experiments:
[1] = test system: butanediol and hydroxybutanone production pathway; assay: Screen of secondary alcohol dehydrogenases in the aldh7-adh2 pathway in E. coli (FIG. 15-17); assay type: cell-based; settings: in words; pathway with aldh7-adh2 and acetoacetyl-CoA reductase
Source text: FIG. 16 illustrates the results of a screen of secondary alcohol dehydrogenases when expressed in the pathway described in FIG. 15. The production titers of 4-hydroxy-2-butanone (hydroxybutanone) and 1,3-butanediol (butanediol) when the illustrated secondary alcohol dehydrogenases are expressed in the pathway illustrated in FIG. 15 are shown. Data are mean±s.d. (n=3).
FIG. 17 illustrates how expression of specific proteins in the pathway described in FIG. 15 can control butanediol:hydroxybutanone ratios through pathway design. The production titers of 4-hydroxy-2-butanone (hydroxybutanone) and 1,3-butanediol (butanediol) when the illustrated proteins are expressed in the pathway illustrated in FIG. 15 are shown. Data are mean±s.d. (n=3).
Unless otherwise described, applicable materials and methods as described in this Example are analogous to those described in Example 1.
At least four SADHs enabled butanediol production of 2 g/L with hydroxybutanone production limited to 250 mg/L or less (FIG. 16). This pathway design appears preferable to enforcing specificity through an ADH that will not accept acetoacetaldehyde; acetoacetaldehyde need not be a dead end product and can still be channeled to butanediol production.

[2] = test system: n-butanol biosynthetic pathway; assay: Butanol and ethanol fuel titer in E. coli DH1 expressing the n-butanol pathway with AdhE2 variants or homologs (FIG. 2, FIG. 3); assay type: cell-based; settings: E. coli DH1, compared with WT AdhE2
Source text: The fuel titer of butanol in E. coli cells expressing the biosynthetic pathway shown in FIG. 6A with various particular AdhE2 variants incorporating amino acid substitutions from the AdhE2 superfamily is shown. The x-axis labels indicate the particular AdhE2 variant being expressed in the E. coli, with wild-type AdhE2 also shown for comparison. In each figure, E. coli DH1 was transformed with pT5T33-phaA.HBD-crt and pCDF3-ter-AdhE2 variant as indicated. FIG. 2A illustrates the butanol production for AdhE2 variants #76930 to #76978. FIG. 2B illustrates the butanol production for AdhE2 variants #76979 to #77025, and also includes WT AdhE2 (GI 499193180). AdhE2 and variants thereof shown in FIG. 2A and FIG. 2B include SEQ ID NOs: 60-154. […]
. […] Samples were quantified after 3 d of cell culture.
Samples (2 ml) were removed from cell culture and cleared of biomass by centrifugation at 20,817 g for 2 min using an Eppendorf 5417R centrifuge. […] These samples were then analyzed on a Trace GC Ultra (Thermo Scientific) using an HP-5MS column (0.25 mm×30 m, 0.25 μM film thickness, J & W Scientific). The oven program was as follows: 75° C. for 3 min, ramp to 300° C. at 45° C. min^−1, 300° C. for 1 min. n-Butanol was quantified by flame ionization detection (FID) (flow: 350 ml min^−1 air, 35 ml min^−1 H2 and 30 ml min^−1 helium). […]

[3] = test system: butanol production pathway; assay: Butanol and ethanol production in E. coli MC1.24 (quintuple KO) with bifunctional or monofunctional dehydrogenases (FIG. 5); assay type: cell-based; settings: E. coli MC1.24, FIG. 5
Source text: FIG. 5 illustrates genetically engineered improvement of a butanol production pathway composed of monofunctional aldehyde and alcohol dehydrogenases. The fuel titer of either butanol or ethanol in E. coli cells expressing the biosynthetic pathway shown in FIG. 6A with various particular alcohol and/or aldehyde dehydrogenases is shown. Specifically, E. coli MC1.24 (quintuple KO) was transformed with pT533-phaA.HBD, pBBR2-aceE.F.lpd and 1: pCWO.trc-ter-adhE2, 2: pCDF3-aldh16, 3: pCWori-ter-aldh16.CaADH, or 4: pCWO.trc-ter-aldh16.CaADH as indicated.
. The cultures were grown at 37° C. in a rotary shaker (200 r.p.m.) and induced with IPTG (1.0 mM) at OD600=0.35-0.45. At this time, the growth temperature was reduced to 30° C., and the culture flasks were sealed with Parafilm M (Pechiney Plastic Packaging) to prevent product evaporation for aerobic cultures. Anaerobic cultures were sealed and the headspace was sparged with argon for 5 minutes immediately follow induction. Aerobic cultures were unsealed for 10 to 30 min every 24 h then resealed with Parafilm M, and additional glucose (1% (w/v)) was added 1 day post-induction. Samples were quantified after 3 d of cell culture.
Samples (2 ml) were removed from cell culture and cleared of biomass by centrifugation at 20,817 g for 2 min using an Eppendorf 5417R centrifuge. The supernatant or cleared medium sample was then mixed in a 9:1 ratio with an aqueous solution containing the isobutanol internal standard (10,000 mg l^−1). These samples were then analyzed on a Trace GC Ultra (Thermo Scientific) using an HP-5MS column (0.25 mm×30 m, 0.25 μM film thickness, J & W Scientific). The oven program was as follows: 75° C. for 3 min, ramp to 300° C. at 45° C. min^−1, 300° C. for 1 min. n-Butanol was quantified by flame ionization detection (FID) (flow: 350 ml min^−1 air, 35 ml min^−1 H2 and 30 ml min^−1 helium). Samples containing n-butanol levels below 500 mg 1^−1 were requantified after extraction of the cleared medium sample or standard (500 μl) with toluene (500 μl) containing the isobutanol internal standard (100 mg 1^−1) using a Digital Vortex Mixer (Fisher) for 5 min set at 2,000. The organic layer was then quantified using the same GC parameters with a DSQII single-quadrupole mass spectrometer (Thermo Scientific) using single-ion monitoring (m/z 41 and 56) concurrent with full scan mode (m/z 35-80). Samples were quantified relative to a standard curve of 2, 4, 8, 16, 31, 63, 125, 250, 500 mg 1^−1 n-butanol for MS detection or 125, 250, 500, 1,000, 2,000, 4,000, 8,000 mg 1^−1 n-butanol for FID detection. Standard curves were prepared freshly during each run and normalized for injection volume using the internal isobutanol standard (100 or 1,000 mg 1^−1 for MS and FID, respectively). […]

[4] = substrate: CCCC(=O)SCCNC(=O)CCNC(=O)[C@H](O)C(C)(C)COP(=O)(O)OP(=O)(O)OC[C@H]1O[C@@H](n2cnc3c(N)ncnc32)[C@H](O)[C@@H]1OP(=O)(O)O; assay: purified protein, by the assay type; settings: other: 100 μM NADH, 100 mM Tris, 1 mM DTT, pH 7.5, 30° C., mean±s.e. (n=3)
[5] = substrate: CC(=O)SCCNC(=O)CCNC(=O)[C@H](O)C(C)(C)COP(=O)(O)OP(=O)(O)OC[C@H]1O[C@@H](n2cnc3c(N)ncnc32)[C@H](O)[C@@H]1OP(=O)(O)O; assay: purified protein, by the assay type; settings: other: 100 μM NADH, 100 mM Tris, 1 mM DTT, pH 7.5, 30° C., mean±s.e. (n=3)
[6] = ALDH7 activity toward substrates; assay type: biochemical; settings: in words

B1: SADH1: secondary alcohol dehydrogenase from Pichia kudriavzevii (protein, listed as Pichia kudriavzevii)
chain: MFMKGLTYLKPGIVSWQSIPKPVLKKPTDVIGKVVTTTICGSDLHILKGDVPETTALAATTGHGVVLGHEAIIEIESVGDAVKNFSKGDVCIVSCITSCGKCYYCKRNLQSHCTGHMEGTSGWVFGHEIDGTQAEYVRVPCADYGLYKVPEGVAYEKLLMLSDAIPTSYEIGILNGEVKEGDSVAVVGLGPVGLSALLTAINKKPKQLIAIDMDENRLDLAKQLGATHIINSTNMPNEEVAKKVQEISKDLEPGRESGVDVAIECVGVPPTFELCEDLIASGGTIANVGVHGAKVDLKLQELWIKNCKITTGLVSTYSIPDLLNQVADGSLDPSPIITHHFKFDEFEKAYQVFKDAKNTKAMKIILTP
butanediol titer [1]: maximum butanediol titer

B2: ALDH16: monofunctional aldehyde dehydrogenase specific for C4 substrates (protein, listed as Clostridium beijerinckii)
chain: MNKDTLIPTTKDLKVKTNGENINLKNYKDNSSCFGVFENVENAISSAVHAQKILSLHYTKEQREKIITEIRKAALQNKEVLATMILEETHMGRYEDKILKHELVAKYTPGTEDLTTTAWSGDNGLTVVEMSPYGVIGAITPSTNPTETVICNSIGMIAAGNAVVFNGHPCAKKCVAFAVEMINKAIISCGGPENLVTTIKNPTMESLDAIIKHPSIKLLCGTGGPGMVKTLLNSGKKAIGAGAGNPPVIVDDTADIEKAGRSIIEGCSFDNNLPCIAEKEVFVFENVADDLISNMLKNNAVIINEDQVSKLIDLVLQKNNETQEYFINKKWVGKDAKLFLDEIDVESPSNVKCIICEVNANHPFVMTELMMPILPIVRVKDIDEAIKYAKIAEQNRKHSAYIYSKNIDNLNRFEREIDTTIFVKNAKSFAGVGYEAEGFTTFTIAGSTGEGITSARNFTRQRRCVLAG
butanol:ethanol ratio [2]: favorable | butanol production [3]: 1 g/L | ethanol production [3]: 0.5 g/L

B3: AdhE2-ALDH (aldehyde dehydrogenase domain of bifunctional AdhE2, wild type, GI 499193180, SEQ ID NO: 41) (Clostridium acetobutylicum) (protein)
chain: MKVTNQKELKQKLNELREAQKKFATYTQEQVDKIFKQCAIAAAKERINLAKLAVEETGIGLVEDKIIKNHFAAEYIYNKYKNEKTCGIIDHDDSLGITKVAEPIGIVAAIVPTTNPTSTAIFKSLISLKTRNAIFFSPHPRAKKSTIAAAKLILDAAVKAGAPKNIIGWIDEPSIELSQDLMSEADIILATGGPSMVKAAYSSGKPAIGVGAGNTPAIIDESADIDMAVSSIILSKTYDNGVICASEQSILVMNSIYEKVKEEFVKRGSYILNQNEIAKIKETMFKNGAINADIVGKSAYIIAKMAGIEVPQTTKILIGEVQSVEKSELFSHEKLSPVLAMYKVKDFDEALKKAQRLIELGGSGHTSSLYIDSQNNKDKVKEFGLAMKTSRTFINMPSSQGASGDLYNFAIAPSFTLGCGTWGGNSVSQNVEPKHLLNIKSVAERRENMLWFKVPQKIYFKYGCLRFALKELKDMNKKRAFIVTDKDLFKLGYVNKITKVLDEIDIKYSIFTDIKSDPTIDSVKKGAKEMLNFEPDTIISIGGGSPMDAAKVMHLLYEYPEAEIENLAINFMDIRKRICNFPKLGTKAISVAIPTTAGTGSEATPFAVITNDETGMKYPLTSYELTPNMAIIDTELMLNMPRKLTAATGIDALVHAIEAYVSVMATDYTDELALRAIKMIFKYLPRAYKNGTNDIEAREKMAHASNIAGMAFANAFLGVCHSMAHKLGAMHHVPHGIACAVLIEEVIKYNATDCPTKQTAFPQYKSPNAKRKYAEIAEYLNLKGTSDTEKVTALIEAISKLKIDLSIPQNISAAGINKKDFYNTLDKMSELAFDDQCTTANPRYPLISELKDIYIKSF
Km [4]: 10 ± 1 µM | Km [5]: 100 ± 10 µM | kcat [5]: 1.3 s⁻¹ | kcat/Km [5]: 13000 M⁻¹ s⁻¹

B4: ALDH7: monofunctional aldehyde dehydrogenase (protein, listed as Clostridium botulinum)
chain: MERNLSVLSQTNDLKITKRTEGDKSNNKESYLGVFKKVENAITKAIYAQKKLSLYYTKEDRERIIKSIRKATLENKEILAKMIVDETHMGRYEDKILKHELVAKYTPGTEDLITTAWSGDQGLTLVEMSPYGVIGAITPSTNPTETVICNSIGMIAAGDSVVFNGHPGAKKCVAFAVDMINKAVIREGGPENLVTTVENPTMESLNVIMKHPYIKLLCGTGGPGLIKTLLNSGKKAIGAGAGNPPVIVDDSADIDKAAKNIIEGCSFDNNLPCIAEKEVFVFENVANDLIQNMIKNNAVLINENQVSKLLDLVLLERKDETLEYAINKKWVGKDAKLFLDKIGIKASDNVRCIICEVDANHPFVMTELMMPILPIVRVKDVDEAIECAKTAEQRKRHSAYMYSKNIDNLNRFEKEIDTTIFVKNAKSFAGVGFGAEGFTTFTIAGPTGEGITSARNFTRQRRCVLAG
activity toward substrates including acetoacetyl-CoA and 3-hydroxybutyryl-CoA [6]: displays activity
